From the Human Domainome abundance scans (Beltran et al. 2025)
± gives the uncertainty stated by the source.

B1: Nuclear receptor subfamily 1 group D member 2, residues 103 to 171; numbered along this chain, Q14995 (parent)
chain: CKVCGDVASGFHYGVHACEGCKGFFRRSIQQNIQYKKCLKNENCSIMRMNRNRCQQCRFKKCLSVGMSR

Variants of: B1
Experiment: abundance fitness (aPCA) (normalised: wild type 0, dead -1); higher = more abundant; growth selection in yeast, the domain comes from the species named
Conditions: Homo sapiens

Variant	abundance fitness
CKVCGDVASGFHYGVHACEGCKGFFRRSIQQNIQYKKCLKNENCSIMRMNRNRCQQCRFKKMLSVGMSR [C62M]	-0.336 ± 0.17
CKVCGDVASGFHYGVRACEGCKGFFRRSIQQNIQYKKCLKNENCSIMRMNRNRCQQCRFKKCLSVGMSR [H16R]	-0.162 ± 0.067
CKVCGDVASGFHYGVHACEGCKGFFRRSIFQNIQYKKCLKNENCSIMRMNRNRCQQCRFKKCLSVGMSR [Q30F]	-0.634 ± 0.3
CKVCGDVASGFHYGVHECEGCKGFFRRSIQQNIQYKKCLKNENCSIMRMNRNRCQQCRFKKCLSVGMSR [A17E]	-0.805 ± 0.15
CKNCGDVASGFHYGVHACEGCKGFFRRSIQQNIQYKKCLKNENCSIMRMNRNRCQQCRFKKCLSVGMSR [V3N]	-0.78 ± 0.38
CKVCGDVASGFHYGVHACEGCKGFFRRSIQQNIQYKKCLKNENCSIMRMNRNRCQFCRFKKCLSVGMSR [Q56F]	-0.006 ± 0.24
CKVCGDVASGFHYGVHACEGCKRFFRRSIQQNIQYKKCLKNENCSIMRMNRNRCQQCRFKKCLSVGMSR [G23R]	-0.087 ± 0.5
CKVCEDVASGFHYGVHACEGCKGFFRRSIQQNIQYKKCLKNENCSIMRMNRNRCQQCRFKKCLSVGMSR [G5E]	-0.605 ± 0.13
CKVCGDVASGFHYGVHACEGCKGFFRSSIQQNIQYKKCLKNENCSIMRMNRNRCQQCRFKKCLSVGMSR [R27S]	-0.51 ± 0.23
CKVCGDVASGFHYGVHACEGCKGFFRRSIQQNIQYLKCLKNENCSIMRMNRNRCQQCRFKKCLSVGMSR [K36L]	-0.459 ± 0.17
CKVCGDVASGFHYGVHACEGCKGFFRRSIQQNIQYKKCLKNENCSIMRMNRNRCQQCRFKKCLAVGMSR [S64A]	-0.048 ± 0.1
CKVCGDVASGFHYGVHACEGCKGFFRRSIQQNIQYKKCLKNENCSIMRMNRNRCQQCRFKKCTSVGMSR [L63T]	-0.523 ± 0.47
CKVCGDVASGFHYGVKACEGCKGFFRRSIQQNIQYKKCLKNENCSIMRMNRNRCQQCRFKKCLSVGMSR [H16K]	-0.501 ± 0.15
CKVCGDVASGFHYGVHACEGCKGFFRRSIQQNIQYKKCLKNENCSIMRMNRNRCQQCRFVKCLSVGMSR [K60V]	-0.249 ± 0.17
CKVCGDVASGFHYGVHACEGCKGFFRRSIQQNIQYKKCLKNENCSIMRMNMNRCQQCRFKKCLSVGMSR [R51M]	-0.328 ± 0.45
CKVCGDVASGFHYGVHACEGCKGFFMRSIQQNIQYKKCLKNENCSIMRMNRNRCQQCRFKKCLSVGMSR [R26M]	0.319 ± 0.42
CKVCGDVASGFHYGVHACEGCKGFFRRSIQQNIQYKKCLKNENCSIMRMNRNRCQQCRFKKLLSVGMSR [C62L]	-0.875 ± 0.24
CKVCGDVASGFHYGVHACEGCKGFFRRSIQQNIQYKYCLKNENCSIMRMNRNRCQQCRFKKCLSVGMSR [K37Y]	-0.631 ± 0.35
CKVCGDVASGFHYGVHACEGCKGFFRRSIQQLIQYKKCLKNENCSIMRMNRNRCQQCRFKKCLSVGMSR [N32L]	-0.706 ± 0.099
CKVCGDVASGFHYGVHACEGCKGFFRRSIQQNIQYKKCLKNENCSIMRMNRNRCQQCRTKKCLSVGMSR [F59T]	-0.512 ± 0.37

Variant	abundance fitness
CKVCGDVASGFHYGVHACEGCKGFFRRSIQQNMQYKKCLKNENCSIMRMNRNRCQQCRFKKCLSVGMSR [I33M]	-0.35 ± 0.077
CKVCGDVASGFHYGVHACEGCKGFFRRSIQLNIQYKKCLKNENCSIMRMNRNRCQQCRFKKCLSVGMSR [Q31L]	-0.169 ± 0.11
CKVCGDVASGFHYGVHACEGCKGFFRRSIQQNIQYKKCLKNENCIIMRMNRNRCQQCRFKKCLSVGMSR [S45I]	-0.039 ± 0.14
CKVCGDVASGFHYGVHACEGCKGFFRRSIQQNIQYKKCLKNENCSTMRMNRNRCQQCRFKKCLSVGMSR [I46T]	-0.387 ± 0.22
CKVCGDVASGFHYGVHACEGCKGFFRRSIQQNIQYKKCLKNENCSIMRMNRNRCQQCRFKKCLSVGMFR [S68F]	-0.561 ± 0.14
CKVCGDVASGFHYGVHACEGCKGFFRRSIQQNIQYKKCLKNENCSIMRMNRNRCQQCRFKKCLSVGMSG [R69G]	0.112 ± 0.079
CKVCGDVASGFHYGVHACEGCKGFFRRSIQQNIQYKKCLKNENCSIMRMNRNMCQQCRFKKCLSVGMSR [R53M]	0.098 ± 0.086
CKVCGDVASGFHYGVHACEGCKGFFRRSIQQNIQYKKCLKNENCSIMRMNRNRCNQCRFKKCLSVGMSR [Q55N]	-0.265 ± 0.18
CKVCGDVASGFHYGVHACEGCKGFFERSIQQNIQYKKCLKNENCSIMRMNRNRCQQCRFKKCLSVGMSR [R26E]	-0.032 ± 0.15
CKVCGDVASGFHYGVHACEGCKGFFRRCIQQNIQYKKCLKNENCSIMRMNRNRCQQCRFKKCLSVGMSR [S28C]	0.179 ± 0.14
CKVCGDVASGFHYGVHACEGCKGFFRRSIQQNIQYKKCLKNENCSIPRMNRNRCQQCRFKKCLSVGMSR [M47P]	-0.237 ± 0.13
CKVCGDVASGFHYGVHACEGCKGFFRRSIQQNIQYKKCLKNENCSIMRMNRNRWQQCRFKKCLSVGMSR [C54W]	-1.09 ± 0.22
CKVCGDVASGFHYGVHACEGCKGFFRRSIQQNIQYKKCMKNENCSIMRMNRNRCQQCRFKKCLSVGMSR [L39M]	0.1 ± 0.14
CKVCGDVASGFHYGVHACEGCKGFFRRSIQQTIQYKKCLKNENCSIMRMNRNRCQQCRFKKCLSVGMSR [N32T]	-0.414 ± 0.092
CKVCGDVGSGFHYGVHACEGCKGFFRRSIQQNIQYKKCLKNENCSIMRMNRNRCQQCRFKKCLSVGMSR [A8G]	-0.597 ± 0.08
CKVCGDVASGFHYGVHACEGCKGFFRRSMQQNIQYKKCLKNENCSIMRMNRNRCQQCRFKKCLSVGMSR [I29M]	-0.14 ± 0.12
CKVCGDNASGFHYGVHACEGCKGFFRRSIQQNIQYKKCLKNENCSIMRMNRNRCQQCRFKKCLSVGMSR [V7N]	-0.019 ± 0.24
CKVCGDLASGFHYGVHACEGCKGFFRRSIQQNIQYKKCLKNENCSIMRMNRNRCQQCRFKKCLSVGMSR [V7L]	-0.119 ± 0.075
CKVCGDVASGFHYGVHACEGCKGFFRRSIQQNIQYKKCLKNENCSIMRMNANRCQQCRFKKCLSVGMSR [R51A]	-0.165 ± 0.12
